This note sets out measurements from patent US6593098 (FOX CHASE CANCER CENTER, dated 2003).

The target in one assay is T1, human BUB1A kinase (human, UniProt O60566 1-1050, hyperphosphorylated in mitotically arrested cells (P-ser and P-thr the major phosphoamino acids; positions not given)).
T1 construct: Endogenous huBUB1A immunoprecipitated or blotted from Hela lysates; also called huBUB1A; hUBUB1A
Kind of assay: specificity test, method not named in the sentence (probably yeast two-hybrid).

The target of the next assay is T2, CENP-E (human, UniProt Q02224 1-2698, limits assumed).
T2 construct: Endogenous Hela protein in the immunoprecipitations; also called CENP-E kinetochore motor; endogenous CENP-E
T2 sequence (Q02224 1-2698 limits assumed): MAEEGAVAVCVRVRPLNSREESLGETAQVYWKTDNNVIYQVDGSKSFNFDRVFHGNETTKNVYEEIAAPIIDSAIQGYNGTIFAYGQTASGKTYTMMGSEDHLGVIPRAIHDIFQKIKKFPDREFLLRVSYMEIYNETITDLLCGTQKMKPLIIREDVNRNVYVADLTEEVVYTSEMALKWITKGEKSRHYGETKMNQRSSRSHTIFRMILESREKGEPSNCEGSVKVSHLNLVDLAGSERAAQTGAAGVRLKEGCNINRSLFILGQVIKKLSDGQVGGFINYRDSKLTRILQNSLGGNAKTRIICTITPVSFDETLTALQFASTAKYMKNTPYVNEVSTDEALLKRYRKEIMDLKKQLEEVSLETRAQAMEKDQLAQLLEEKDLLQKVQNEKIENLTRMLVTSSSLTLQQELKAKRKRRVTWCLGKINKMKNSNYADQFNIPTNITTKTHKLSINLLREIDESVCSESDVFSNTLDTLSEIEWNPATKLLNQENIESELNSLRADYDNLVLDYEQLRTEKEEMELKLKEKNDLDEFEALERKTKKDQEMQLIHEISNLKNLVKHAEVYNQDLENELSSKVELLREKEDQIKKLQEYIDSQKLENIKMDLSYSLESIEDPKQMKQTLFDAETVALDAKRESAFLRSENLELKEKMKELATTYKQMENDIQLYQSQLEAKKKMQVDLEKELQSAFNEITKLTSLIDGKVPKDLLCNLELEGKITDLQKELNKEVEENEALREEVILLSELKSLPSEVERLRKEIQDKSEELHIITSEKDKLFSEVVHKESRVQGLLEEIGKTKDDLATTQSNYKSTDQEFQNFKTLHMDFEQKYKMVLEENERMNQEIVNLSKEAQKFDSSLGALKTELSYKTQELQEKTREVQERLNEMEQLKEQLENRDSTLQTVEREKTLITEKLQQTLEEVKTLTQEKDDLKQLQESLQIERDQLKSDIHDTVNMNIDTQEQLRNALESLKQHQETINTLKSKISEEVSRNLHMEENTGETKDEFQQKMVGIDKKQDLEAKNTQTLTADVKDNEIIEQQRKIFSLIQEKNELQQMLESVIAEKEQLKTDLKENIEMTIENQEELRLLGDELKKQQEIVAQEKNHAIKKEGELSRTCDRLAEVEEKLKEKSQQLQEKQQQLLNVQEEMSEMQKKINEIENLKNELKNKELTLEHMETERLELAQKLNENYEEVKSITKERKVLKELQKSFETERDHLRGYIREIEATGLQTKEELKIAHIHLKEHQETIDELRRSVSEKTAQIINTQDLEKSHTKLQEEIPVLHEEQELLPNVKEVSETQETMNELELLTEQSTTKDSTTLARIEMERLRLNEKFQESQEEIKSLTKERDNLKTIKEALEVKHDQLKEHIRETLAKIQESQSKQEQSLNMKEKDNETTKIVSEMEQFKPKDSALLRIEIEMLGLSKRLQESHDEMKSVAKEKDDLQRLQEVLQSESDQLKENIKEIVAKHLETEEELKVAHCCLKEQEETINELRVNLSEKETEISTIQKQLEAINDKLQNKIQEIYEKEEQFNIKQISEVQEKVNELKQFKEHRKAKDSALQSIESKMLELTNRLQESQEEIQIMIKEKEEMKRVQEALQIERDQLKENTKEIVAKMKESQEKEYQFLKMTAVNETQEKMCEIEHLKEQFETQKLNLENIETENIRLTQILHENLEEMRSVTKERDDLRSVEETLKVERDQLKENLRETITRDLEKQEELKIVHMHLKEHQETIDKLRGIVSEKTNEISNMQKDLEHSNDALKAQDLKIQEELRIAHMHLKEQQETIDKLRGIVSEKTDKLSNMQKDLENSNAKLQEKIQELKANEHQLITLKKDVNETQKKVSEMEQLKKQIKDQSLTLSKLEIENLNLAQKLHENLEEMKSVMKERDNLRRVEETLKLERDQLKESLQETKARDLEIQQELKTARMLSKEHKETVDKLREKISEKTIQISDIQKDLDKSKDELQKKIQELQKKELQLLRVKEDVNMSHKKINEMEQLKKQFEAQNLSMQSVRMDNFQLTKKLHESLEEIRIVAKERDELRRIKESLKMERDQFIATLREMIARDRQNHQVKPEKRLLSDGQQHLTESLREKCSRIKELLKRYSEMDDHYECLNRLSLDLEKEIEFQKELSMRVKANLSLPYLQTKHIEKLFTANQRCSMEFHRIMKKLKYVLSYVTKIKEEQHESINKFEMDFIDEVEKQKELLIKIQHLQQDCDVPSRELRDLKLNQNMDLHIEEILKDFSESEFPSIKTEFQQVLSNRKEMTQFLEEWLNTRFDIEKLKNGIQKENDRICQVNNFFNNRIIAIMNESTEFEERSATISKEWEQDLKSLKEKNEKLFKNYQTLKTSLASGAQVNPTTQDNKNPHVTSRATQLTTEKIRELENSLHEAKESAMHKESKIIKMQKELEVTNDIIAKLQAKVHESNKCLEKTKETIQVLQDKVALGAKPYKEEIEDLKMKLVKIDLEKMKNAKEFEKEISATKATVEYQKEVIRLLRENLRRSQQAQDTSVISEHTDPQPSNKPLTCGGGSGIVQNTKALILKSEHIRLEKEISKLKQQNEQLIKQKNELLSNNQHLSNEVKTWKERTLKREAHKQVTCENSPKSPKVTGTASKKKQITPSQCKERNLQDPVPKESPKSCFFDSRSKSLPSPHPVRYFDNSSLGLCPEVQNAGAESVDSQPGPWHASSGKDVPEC
Described as above.

T1 sequence (O60566 whole entry R349Q/E1018K): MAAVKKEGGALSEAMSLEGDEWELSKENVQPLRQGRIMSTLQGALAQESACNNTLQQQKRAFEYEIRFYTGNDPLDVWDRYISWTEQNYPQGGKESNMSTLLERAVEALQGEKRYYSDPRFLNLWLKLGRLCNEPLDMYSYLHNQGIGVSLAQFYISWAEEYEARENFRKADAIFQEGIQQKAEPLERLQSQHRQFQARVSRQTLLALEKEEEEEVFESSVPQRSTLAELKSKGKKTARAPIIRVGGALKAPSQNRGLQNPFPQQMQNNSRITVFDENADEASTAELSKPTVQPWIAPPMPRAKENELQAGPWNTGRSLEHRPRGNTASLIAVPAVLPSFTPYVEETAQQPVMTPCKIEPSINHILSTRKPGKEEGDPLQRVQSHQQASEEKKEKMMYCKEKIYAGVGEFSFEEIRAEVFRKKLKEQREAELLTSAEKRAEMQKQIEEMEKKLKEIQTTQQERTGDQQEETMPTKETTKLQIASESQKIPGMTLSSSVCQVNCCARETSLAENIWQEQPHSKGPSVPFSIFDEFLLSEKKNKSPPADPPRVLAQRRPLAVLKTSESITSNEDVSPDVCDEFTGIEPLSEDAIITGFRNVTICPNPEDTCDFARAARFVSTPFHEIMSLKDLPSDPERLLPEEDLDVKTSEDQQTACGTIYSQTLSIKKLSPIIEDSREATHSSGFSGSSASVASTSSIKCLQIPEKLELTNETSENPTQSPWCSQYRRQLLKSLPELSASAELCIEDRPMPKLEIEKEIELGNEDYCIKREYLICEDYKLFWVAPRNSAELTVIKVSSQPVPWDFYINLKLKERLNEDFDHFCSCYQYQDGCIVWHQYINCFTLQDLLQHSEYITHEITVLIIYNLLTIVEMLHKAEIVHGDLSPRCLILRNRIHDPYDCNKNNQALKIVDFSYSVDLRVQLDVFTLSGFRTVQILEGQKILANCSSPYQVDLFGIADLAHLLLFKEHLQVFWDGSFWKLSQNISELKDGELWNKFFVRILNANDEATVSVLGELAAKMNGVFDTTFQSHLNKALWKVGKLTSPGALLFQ

B1: CENP-F (other, UniProt P49454 2542-3114, looked up)
chain: SQVEGEHQLWKEQNLELRNLTVELEQKIQVLQSKNASLQDTLEVLQSSYKNLENELELTKMDKMSFVEKVNKMTAKETELQREMHEMAQKTAELQEELSGEKNRLAGELQLLLEEIKSSKDQLKELTLENSELKKSLDCMHKDQVEKEGKVREEIAEYQLRLHEAEKKHQALLLDTNKQYEVEIQTYREKLTSKEECLSSQKLEIDLLKSSKEELNNSLKATTQILEELKKTKMDNLKYVNQLKKENERAQGKMKLLIKSCKQLEEEKEILQKELSQLQAAQEKQKTGTVMDTKVDELTTEIKELKETLEEKTKEADEYLDKYCSLLISHEKLEKAKEMLETQVAHLCSQQSKQDSRGSPLLGPVVPGPSPIPSVTEKRLSSGQNKASGKRQRSSGIWENGRGPTPATPESFSKKSKKAVMSGIHPAEDTEGTEFEPEGLPEVVKKGFADIPTGKTSPYILRRTTMATRTSPRLAAQKLALSPLSLGKENLAESSKPTAGGSRSQKVKVAQRSPVDSGTILREPTTKSVPVNNLPERSPTDSPREGLRVKRGRLVPSPKAGLESNGSENCKVQ
On to B1, for which the binding result in the assay with human BUB1A kinase is reported as “no binding”.

B2: human BUB1B kinase (enzyme)
chain: MDTPENVLQMLEAHMQSYKGNDPLGEWERYIQWVEENFPENKEYLITLLEHLMKEFLDKKKYHNDPRFISYCLKFAEYNSDLHQFFEFLYNHGIGTLSSPLYIAWAGHLEAQGELQHASAVLQRGIQNQAEPREFLQQQYRLFQTRLTETHLPAQARTSEPLHNVQVLNQMITSKSNPGNNMACISKNQGSELSGVISSACDKESNMERRVITISKSEYSVHSSLASKVDVEQVVMYCKEKLIRGESEFSFEELRAQKYNQRRKHEQWVNEDRHYMKRKEANAFEEQLLKQKMDELHKKLHQVVETSHEDLPASQERSEVNPARMGPSVGSQQELRAPCLPVTYQQTPVNMEKNPREAPPVVPPLANAISAALVSPATSQSIAPPVPLKAQTVTDSMFAVASKDAGCVNKSTHEFKPQSGAEIKEGCETHKVANTSSFHTTPNTSLGMVQATPSKVQPSPTVHTKEALGFIMNMFQAPTLPDISDDKDEWQSLDQNEDAFEAQFQKNVRSSGAWGVNKIISSLSSAFHVFEDGNKENYGLPQPKNKPTGARTFGERSVSRLPSKPKEEVPHAEEFLDDSTVWGIRCNKTLAPSPKSPGDFTSAAQLASTPFHKLPVESVHILEDKENVVAKQCTQATLDSCEENMVVPSRDGKFSPIQEKSPKQALSSHMYSASLLRLSQPAAGGVLTCEAELGVEACRLTDTDAAIAEDPPGSAAIAEDPPDAIAGLQAEWMQMSSLGTVDAPNFIVGNPWDDKLIFKLLSGLSKPVSSYPNTFEWQCKLPAIKPKTEFQLGSKLVYVHHLLGEGAFAQVYEATQGDLNDAKNKQKFVLKVQKPANPWEFYIGTQLMERLKPSMQHMFMKFYSAHLFQNGSVLVGELYSYGTLLNAINLYKNTPEKVMPQGLVISFAMRMLYMIEQVHDCEIIHGDIKPDNFILGNGFLEQDDEDDLSAGLALIDLGQSIDMKLFPKGTIFTAKCETSGFQCVEMLSNKPWNYQIDYFGVAATVYCMLFGTYMKVKNEGGECKPEGLFRRLPHLDMWNEFFHVMLNIPDCHHLPSLDLLRQKLKKVFQQHYTNKIRALRNRLIVLLLECKRSRK
notes: Endogenous protein in the immunoprecipitations; also called huBUB1B
For the molecule B2, the binding result in the assay with CENP-E is listed as “no binding”.
